Data as given in patent publication US20180057536.

Experiments:
[1] = tested on: T1, Selective delivery molecule 10 (SDM-10)
T1 sequence: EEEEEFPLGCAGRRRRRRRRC

[2] = tested on: T2, Selective delivery molecule 9 (SDM-9)
T2 sequence: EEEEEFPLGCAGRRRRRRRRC

| Substance | Cy5 fluorescence enhancement after protease cleavage (dequenching), 1 uM SDM-10 in TCNB buffer [1] | fluorescent cleavage fragment on polyacrylamide gel (1 nM MMP-9, 1 uM SDM-10, 24 h, 37 C) [1] | Cy5 donor emission after protease cleavage (FRET disruption), 1 uM SDM-9 in TCNB buffer [2] | Cy7 acceptor emission after protease cleavage (FRET disruption), 1 uM SDM-9 in TCNB buffer [2] |
| --- | --- | --- | --- | --- |
| MMP-9 | the fluorescence was enhanced >100-fold upon protease cleavage | After cleavage by MMP-9 the fragment containing the fluorophore is dequenched (becoming highly fluorescent) and runs near the bottom of the gel |  |  |
| matrix metalloproteinase-2 (MMP-2) |  |  | a large 8-fold increase the Cy5 donor emission | 2-fold decrease in the Cy7 emission |
